According to patent US10281476B2, “Methods to identify modulators of RyR calcium channels” (REGENTS OF THE UNIVERSITY OF MINNESOTA, priority 2013, dated 2019):

Tests used:
[1] = test system: permeabilized cardiomyocytes; experiment: Ca2+ sparks and SR Ca2+ content in permeabilized myocytes; type: cell-based, rat; settings: 5 μmol/L DPc10 with 1 μmol/L CaM or 100 nmol/L FKBP12.6
Protocol: Myocytes were permeabilized with saponin (50μg/mL) for 60 seconds and placed in internal solution composed of EGTA 0.5 mmol/L; HEPES 10 mmol/L; Kaspartate 120 mmol/L; ATP 5 mmol/L; free MgCl2 1 mmol/L, reduced glutathione 10 mmol/L; and free [Ca2+] 50nmol/L (calculated using MaxChelator), creatine phosphokinase 5 U/mL, phosphocreatine 10 mmol/L, dextran 4% Fluo-4 0.025 mmol/L, pH 7.2. Ca2+sparks were recorded by a laser scanning confocal microscope (RADIANCE2000™ MP, Bio-Rad, UK) as previously described (Li et al., Circ Res, 2002; 90:309-316). Fluo-4 was excited at 488 nm and emission was recorded using 500/530 nm bandpass filter. To assess SR Ca2+content, caffeine (15 mmol/L) was rapidly perfused. Ca2+spark were analyzed as using SparkMaster (Picht et al., Am J Physiol Cell Physiol, 2007; 293:C1073-C1081).
Next, we asked whether RyR2 is activated by DPc10 and whether FKBP12.6 or CaM can prevent this. We assessed Ca^2+ sparks in permeabilized myocytes perfused with internal solution containing 50 nmol/L free Ca^2+ plus 1 μmol/L autocamtide-2-related inhibitory peptide (to inhibit CaMKII activity). Line-scan images were recorded after 3-hour incubations under control conditions and in the presence of 5 μmol/L DPc10, with or without 1 μmol/L CaM or 100 nmol/L FKBP12.6 (FIG. 14D).

RyR2 [2] = target: T1, RyR2 (Rattus norvegicus, UniProt B0LPN4); experiment: F-DPc10 wash-in and washout kinetics at the myocyte Z-line; type: binding; parameters: endogenous in cells; host or cells: saponin-permeabilized adult rat ventricular myocytes
Protocol: To characterize DPc10-binding kinetics at Z-lines, we performed F-DPc10 wash-in (500 nmol/L) and washout experiments in permeabilized myocytes (FIG. 10A). Association (τwash-in=79.0±3.2 minutes) and dissociation (τwashout=149.8±4.4 minutes) were very slow compared with similar FKBP12.6 measurements (Guo et al., Circ Res, 2010; 106:1743-1752). From the wash-in/washout measurements, we calculated the association and dissociation rates constants, kon and koff, respectively, according to the following equation: kwash-in=[F-DPc10]kon+koff where kwashout≈koff and k=1/τ (s^−1). Accordingly, kon=202±20 (L mol^−1 s^−1) and koff=0.11±0.01 (10^−3 s^−1). […] We repeated this kinetic analysis using FRET between FKBP12.6 and DPc10, thus assessing the RyR2-specific DPc10 binding (FIG. 11A AND 11B). […] Based on these kinetic and affinity analyses, we infer that most of the Z-line-specific DPc10 binding is to RyR2. This is also consistent with Bmax, which would imply ≈1 DPc10 per RyR2 monomer.
We were intrigued by the slow kwash-in and conducted measurements to further understand the basis of this slow association. We tested the hypothesis that at resting [Ca^2+]i, DPc10 access to its RyR2 binding site is sterically hindered. If the N-terminal and central domains are tightly zipped to each other, then this interaction may occlude the DPc10-binding site on the RyR2, thus limiting the kon for DPc10. Alternatively, a limiting factor may be the rate at which DPc10 adopts a conformation that can bind to RyR2. To discern between these mechanisms, we determined the effect of [F-DPc10] on τwash-in. If the small fraction of DPc10 in the right conformation limits binding rate, then τwash-in should be faster at higher [F-DPc10], according to Equation. […] Instead, a 10-fold increase in [F-DPc10] had no significant effect on the τwash-in, although it did increase Bmax (FIG. 10B). The same was seen when using FKBP12.6-DPc10 FRET to assess τwash-in with 0.5 vs 5 μmol/L HF647-DPc10 (FIG. 12A AND 12B).
In our working model, under resting conditions, the RyR2 closed state may be stabilized by the interaction between the N-terminal and central domain in the zipped state. We hypothesized that conditions that promote RyR2 opening might enhance the rate of unzipping and accelerate τwash-in for F-DPc10. To test this, we first monitored F-DPc10 wash-in at elevated Ca^2+ (500 nmol/L). However, the 13% faster mean τwash-in was not significant (FIG. 13A). […] Thus, we preincubated myocytes with ryanodine (100 μmol/L) plus caffeine ([…]), which are known to favor long RyR2 openings and were reported to cause RyR2 domain unzipping in HEK293 cells (Liu et al., J Cell Sci, 2010; 123: 1775-1784). Ryanodine+caffeine produced a 21% faster τwash-in (P=0.002; FIG. 13B). However, the most significant effect was seen after presaturating RyR2 with NF-DPc10 (and then NF-DPc10 washout with F-DPc10 present; FIG. 13A). […] Assuming that koff of NF-DPc10 is the same as for F-DPc10 and using Equation, the kon is increased by 3.2-fold by unzipping as a result of prebinding of NF-DPc10 to the RyR2. Our working hypothesis is that the RyR2 open state may increase the probability of an RyR2 shifting to the unzipped state and may allow faster F-DPc10 wash-in. It also seems that the RyR2 open state (favored by caffeine-ryanodine) differs from the unzipped state (bound with DPc10).
Both FKBP12.6 and CaM bind to the RyR2 and can reduce channel opening, which might alter DPc10 binding. […] Neither CaM nor FKBP12.6 pretreatment altered M-line F-DPc10 fluorescence (FIG. 15). […] We infer that CaM stabilizes the domain interaction between N-terminal and central domains in the zipped state and thereby may reduce DPc10 access to its binding site. To test for direct CaM-DPc10 interaction, we performed control FRET measurements between donor-labeled CaM and acceptor-labeled DPc10 in solution in the absence of RyR. The maximal FRET efficiency (<1%) ruled out direct CaM-DPc10 interaction. […]
Target sequence in this assay (B0LPN4 whole entry): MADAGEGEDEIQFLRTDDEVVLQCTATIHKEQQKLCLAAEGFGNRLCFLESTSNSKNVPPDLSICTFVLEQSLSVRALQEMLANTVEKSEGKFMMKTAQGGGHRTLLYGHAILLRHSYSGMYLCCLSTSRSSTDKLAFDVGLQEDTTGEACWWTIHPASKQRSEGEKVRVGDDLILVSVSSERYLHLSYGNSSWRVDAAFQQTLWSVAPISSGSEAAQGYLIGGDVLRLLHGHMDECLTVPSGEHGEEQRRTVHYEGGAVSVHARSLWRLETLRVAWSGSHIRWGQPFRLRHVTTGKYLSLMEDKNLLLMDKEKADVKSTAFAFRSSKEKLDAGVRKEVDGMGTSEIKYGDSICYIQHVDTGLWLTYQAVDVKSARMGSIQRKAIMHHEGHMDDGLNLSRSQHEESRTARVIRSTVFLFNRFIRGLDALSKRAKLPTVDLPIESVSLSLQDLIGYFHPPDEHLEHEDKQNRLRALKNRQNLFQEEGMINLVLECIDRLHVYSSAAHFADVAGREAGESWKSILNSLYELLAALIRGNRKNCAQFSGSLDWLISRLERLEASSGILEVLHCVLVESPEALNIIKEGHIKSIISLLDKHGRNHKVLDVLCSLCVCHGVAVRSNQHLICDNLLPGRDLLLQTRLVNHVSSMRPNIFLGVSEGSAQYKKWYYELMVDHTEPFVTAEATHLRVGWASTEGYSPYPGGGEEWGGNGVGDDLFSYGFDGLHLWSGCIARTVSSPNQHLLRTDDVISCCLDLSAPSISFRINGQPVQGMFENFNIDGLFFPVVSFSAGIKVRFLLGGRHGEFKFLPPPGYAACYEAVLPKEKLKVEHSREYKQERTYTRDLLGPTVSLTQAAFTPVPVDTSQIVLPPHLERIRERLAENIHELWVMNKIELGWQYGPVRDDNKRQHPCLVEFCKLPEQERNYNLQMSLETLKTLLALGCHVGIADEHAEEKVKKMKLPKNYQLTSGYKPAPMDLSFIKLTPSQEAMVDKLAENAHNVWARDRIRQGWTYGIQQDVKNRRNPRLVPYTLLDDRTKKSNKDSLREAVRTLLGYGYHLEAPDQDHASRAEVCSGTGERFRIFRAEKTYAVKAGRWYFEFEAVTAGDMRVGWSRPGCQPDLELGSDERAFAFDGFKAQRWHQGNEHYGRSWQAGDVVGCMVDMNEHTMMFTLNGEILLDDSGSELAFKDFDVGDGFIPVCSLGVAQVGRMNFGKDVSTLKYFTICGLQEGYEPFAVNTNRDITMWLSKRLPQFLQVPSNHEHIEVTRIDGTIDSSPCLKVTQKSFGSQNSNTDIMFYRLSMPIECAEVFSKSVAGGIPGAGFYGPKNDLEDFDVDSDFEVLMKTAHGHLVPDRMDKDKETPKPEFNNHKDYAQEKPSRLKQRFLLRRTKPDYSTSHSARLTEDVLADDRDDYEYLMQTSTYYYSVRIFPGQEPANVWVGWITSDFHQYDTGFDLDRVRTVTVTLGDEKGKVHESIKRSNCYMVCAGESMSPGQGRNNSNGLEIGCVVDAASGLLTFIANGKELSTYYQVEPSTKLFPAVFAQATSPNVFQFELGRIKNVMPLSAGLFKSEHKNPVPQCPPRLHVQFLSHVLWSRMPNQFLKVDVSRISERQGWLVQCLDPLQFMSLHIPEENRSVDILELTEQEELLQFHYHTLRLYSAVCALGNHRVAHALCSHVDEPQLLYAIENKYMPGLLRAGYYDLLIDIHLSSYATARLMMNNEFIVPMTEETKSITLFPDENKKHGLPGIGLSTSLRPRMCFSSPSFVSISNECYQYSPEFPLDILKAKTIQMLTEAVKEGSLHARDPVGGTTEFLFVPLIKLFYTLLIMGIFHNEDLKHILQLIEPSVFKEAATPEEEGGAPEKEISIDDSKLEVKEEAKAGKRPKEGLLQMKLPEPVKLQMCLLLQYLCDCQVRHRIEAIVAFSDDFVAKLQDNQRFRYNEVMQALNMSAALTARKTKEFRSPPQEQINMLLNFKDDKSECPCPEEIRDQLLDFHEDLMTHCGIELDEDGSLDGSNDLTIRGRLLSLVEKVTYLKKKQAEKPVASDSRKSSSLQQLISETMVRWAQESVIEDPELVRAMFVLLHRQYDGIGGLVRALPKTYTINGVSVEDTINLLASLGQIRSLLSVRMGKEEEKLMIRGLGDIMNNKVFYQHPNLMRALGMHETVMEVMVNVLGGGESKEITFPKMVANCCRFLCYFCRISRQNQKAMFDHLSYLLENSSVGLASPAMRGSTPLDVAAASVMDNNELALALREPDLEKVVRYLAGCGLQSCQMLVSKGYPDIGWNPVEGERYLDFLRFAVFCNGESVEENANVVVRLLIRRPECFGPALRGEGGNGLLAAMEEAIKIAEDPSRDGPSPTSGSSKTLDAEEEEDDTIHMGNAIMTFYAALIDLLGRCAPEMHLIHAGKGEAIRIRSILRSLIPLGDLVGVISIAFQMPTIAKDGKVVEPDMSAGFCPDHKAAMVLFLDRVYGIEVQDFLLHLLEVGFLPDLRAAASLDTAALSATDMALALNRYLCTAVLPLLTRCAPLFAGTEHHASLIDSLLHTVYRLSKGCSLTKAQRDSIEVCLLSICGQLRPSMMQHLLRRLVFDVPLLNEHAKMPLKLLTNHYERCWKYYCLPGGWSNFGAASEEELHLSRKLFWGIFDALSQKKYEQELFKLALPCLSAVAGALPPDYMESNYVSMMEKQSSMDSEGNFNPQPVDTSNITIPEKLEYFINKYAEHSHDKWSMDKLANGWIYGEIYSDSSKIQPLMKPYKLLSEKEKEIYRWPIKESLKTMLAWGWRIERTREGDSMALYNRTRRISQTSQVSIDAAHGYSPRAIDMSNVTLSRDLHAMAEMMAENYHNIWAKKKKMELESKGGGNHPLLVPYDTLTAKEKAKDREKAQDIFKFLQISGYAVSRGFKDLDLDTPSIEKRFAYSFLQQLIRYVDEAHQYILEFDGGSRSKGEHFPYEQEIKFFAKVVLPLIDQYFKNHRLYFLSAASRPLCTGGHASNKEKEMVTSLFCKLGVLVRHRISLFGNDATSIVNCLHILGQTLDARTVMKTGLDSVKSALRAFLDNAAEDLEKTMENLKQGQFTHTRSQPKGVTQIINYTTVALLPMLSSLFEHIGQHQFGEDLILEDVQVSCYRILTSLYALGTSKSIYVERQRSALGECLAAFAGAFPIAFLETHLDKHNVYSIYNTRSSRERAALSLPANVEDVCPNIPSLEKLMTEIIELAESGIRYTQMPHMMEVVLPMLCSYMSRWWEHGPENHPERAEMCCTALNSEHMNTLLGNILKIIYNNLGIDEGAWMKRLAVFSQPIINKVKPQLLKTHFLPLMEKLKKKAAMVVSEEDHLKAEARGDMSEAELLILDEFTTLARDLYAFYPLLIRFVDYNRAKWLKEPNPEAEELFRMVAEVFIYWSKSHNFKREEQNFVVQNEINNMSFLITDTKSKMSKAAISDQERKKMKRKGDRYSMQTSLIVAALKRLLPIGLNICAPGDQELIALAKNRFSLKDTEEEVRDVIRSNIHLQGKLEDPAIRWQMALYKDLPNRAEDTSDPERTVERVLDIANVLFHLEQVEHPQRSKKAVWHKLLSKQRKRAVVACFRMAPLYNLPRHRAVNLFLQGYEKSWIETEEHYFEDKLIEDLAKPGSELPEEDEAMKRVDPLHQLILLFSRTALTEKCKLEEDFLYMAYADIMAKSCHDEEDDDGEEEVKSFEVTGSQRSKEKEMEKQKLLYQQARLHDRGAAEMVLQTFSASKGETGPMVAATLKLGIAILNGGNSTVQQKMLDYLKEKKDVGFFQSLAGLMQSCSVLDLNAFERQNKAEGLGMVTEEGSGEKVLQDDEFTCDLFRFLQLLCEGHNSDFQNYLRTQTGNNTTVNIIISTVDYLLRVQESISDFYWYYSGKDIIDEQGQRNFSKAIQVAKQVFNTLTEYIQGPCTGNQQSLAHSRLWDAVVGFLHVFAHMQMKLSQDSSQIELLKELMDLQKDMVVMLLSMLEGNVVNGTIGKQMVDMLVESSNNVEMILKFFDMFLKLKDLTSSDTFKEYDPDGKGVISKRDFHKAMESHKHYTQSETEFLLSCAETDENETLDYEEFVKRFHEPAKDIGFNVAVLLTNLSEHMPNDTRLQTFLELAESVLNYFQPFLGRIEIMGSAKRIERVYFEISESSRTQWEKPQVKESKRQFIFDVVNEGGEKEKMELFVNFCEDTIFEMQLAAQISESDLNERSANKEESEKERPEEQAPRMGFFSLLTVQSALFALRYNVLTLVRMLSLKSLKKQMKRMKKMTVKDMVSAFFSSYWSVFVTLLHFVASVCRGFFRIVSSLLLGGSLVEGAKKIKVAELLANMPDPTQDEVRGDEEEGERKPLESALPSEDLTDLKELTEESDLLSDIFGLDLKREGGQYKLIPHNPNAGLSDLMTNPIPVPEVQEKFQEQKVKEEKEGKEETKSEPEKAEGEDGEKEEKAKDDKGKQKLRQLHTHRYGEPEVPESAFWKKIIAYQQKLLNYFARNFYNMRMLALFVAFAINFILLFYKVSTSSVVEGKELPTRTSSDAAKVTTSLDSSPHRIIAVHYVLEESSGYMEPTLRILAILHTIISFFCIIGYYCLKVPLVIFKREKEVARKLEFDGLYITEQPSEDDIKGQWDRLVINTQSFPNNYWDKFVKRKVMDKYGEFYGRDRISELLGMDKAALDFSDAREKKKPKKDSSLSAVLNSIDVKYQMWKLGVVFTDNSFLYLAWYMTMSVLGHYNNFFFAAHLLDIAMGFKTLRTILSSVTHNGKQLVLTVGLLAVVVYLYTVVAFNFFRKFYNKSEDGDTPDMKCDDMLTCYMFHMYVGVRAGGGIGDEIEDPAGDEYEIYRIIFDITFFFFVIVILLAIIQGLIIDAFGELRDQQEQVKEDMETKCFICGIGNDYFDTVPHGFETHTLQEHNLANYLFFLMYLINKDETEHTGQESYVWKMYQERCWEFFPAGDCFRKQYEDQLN

RyR2 [3] = target: T1, RyR2; experiment: Fluorescent FKBP12.6 binding at the Z-line of permeabilized myocytes; parameters: These fluorescent proteins were added to saponin-permeabilized myocytes with or without pre-equilibration with saturating DPc10 concentration; endogenous in cells; host or cells: saponin-permeabilized rat ventricular myocytes
Protocol: These fluorescent proteins were added to saponin-permeabilized myocytes with or without pre-equilibration with saturating DPc10 concentration. […] We also did this with high [CaM] (500 nmol/L) that saturates RyR2 with CaM under control conditions (without DPc10; FIG. 17C). […] To test whether DPc10 and CaM bind at the same or nearby RyR2 sites, we measured FRET between CaM and DPc10.
FKBP12.6 can bind to and stabilize RyR2 channel gating, but details are controversial (Bers et al., Circ Res. 2012; 110:796-799). We measured the effect of H2O2 on FKBP12.6-RyR2 binding affinity in saponin-permeabilized myocytes using F-FKBP (Yang et al., Circ Res. 2014; 114:295-306; Cornea et al., Proc Natl Acad Sci USA. 2009; 106:6128-6133; Guo et al., Circ Res. 2010; 106:1743-1752; Guo et al., Biophys J. 2011; 101:2170-2177; Cornea et al., J Biol Chem. 2010; 285:19219-19226). […] We used 1 nmol/L F-FKBP (the its Kd) (Guo et al., Circ Res. 2010; 106:1743-1752), because at half-saturation it would be very sensitive to either an increase or decrease in RyR2 binding.
Target sequence in this assay (B0LPN4 whole entry): as above
Target sequence in this assay (P68106 with tags, fused parts or gaps T15C/C23A/C77I partner): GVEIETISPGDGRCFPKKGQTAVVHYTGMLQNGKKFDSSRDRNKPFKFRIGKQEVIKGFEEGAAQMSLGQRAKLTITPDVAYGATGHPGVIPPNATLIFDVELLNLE

RyR2 [4] = target: T1, RyR2; parameters: These fluorescent proteins were added to saponin-permeabilized myocytes with or without pre-equilibration with saturating DPc10 concentration; endogenous in cells; host or cells: saponin-permeabilized rat ventricular myocytes; settings: cited from earlier work
Target sequence in this assay (B0LPN4 whole entry): as the sequence (B0LPN4 whole entry) above
Target sequence in this assay (P68106 with tags, fused parts or gaps T15C/C23A/C77I partner): as the sequence (P68106 with tags, fused parts or gaps T15C/C23A/C77I partner) above

RyR2 [5] = target: RyR2 (Homo sapiens, UniProt Q92736); settings: cited from earlier work
RyR1 = RyR1 (Homo sapiens, UniProt P21817); settings: cited from earlier work
[6] = saturation of RyR2 with CaM 1 μmol/L or FKBP12.6 100 nmol/L, F-DPc10 5 μmol/L

Substance	effect on CaSpF activation by DPc10 [1]	effect on F-DPc10 binding (RyR2 [2]; 200-minute incubation with F-DPc10, pretreatment CaM 1 μmol/L or FKBP12.6 100 nmol/L)	effect on Bmax for F-DPc10 (RyR2 [2]; [6])	effect on τwash-in of F-DPc10 (RyR2 [2]; [6])	Bmax for FKBP12.6, reanalyzed using FZ-FM (RyR2 [3]) [µmol/L]	Bmax of FKBP12.6, previous measurements (RyR2 [4]; cell average fluorescence)	Kd (RyR2 [4]; read-out: Kd of FKBP12.6 for RyR2) [nM]	lower affinity than FKBP12.6 (RyR2 [5]) [fold]	lower binding affinity (RyR1) [fold]
FKBP12.6: FK506-binding protein 12.6	only slightly decreased	did not alter	did not alter	did not alter	1.3	≈ 1 μmol/L	~1		
FKBP12: FK506-binding protein isoform FKBP12								~100	~4
